Test results taken from patent US11866736B2, “Protein prostheses for mitochondrial diseases or conditions” (The General Hospital Corporation, priority 2015, dated 2024).

Experiments:
[1] = Enzymatic assay of NAD(P)H oxidase activity, NADH as substrate (absorbance at 340); format: biochemical
Protocol: FIGS. 1A-1E illustrate the biochemical properties of LbNOX with a C-terminal FLAG tag and a cleavable N-terminal hexahistidine (Hisx6) tag produced by overexpression in E. coli. Purified LbNOX-FLAG has a yellow color and a UV-visible absorption spectrum (λmax=371 and 444 nm) similar to other FAD-containing enzymes, which can be reduced upon the addition of sodium dithionite (FIG. 1B). (FIG. 1A) Reaction catalyzed by LbNOX. (FIG. 1B) UV-visible spectrum of purified LbNOX. Protein (82.8 μM FAD active sites) in 50 mM NaPi pH 7.5, 150 mM NaCl after purification in oxidized form (solid line) and after addition of excess of sodium dithionite, reduced form (dashed line). Inset: SDS-PAGE of purified LbNOX. (FIG. 1C) Simultaneous measurement of NADH and oxygen consumption by LbNOX as assayed in 50 mM NaPi pH 7.5, 150 mM NaCl at 28° C. NADH (500 μM) and LbNOX (1.8 μg) were added as indicated by arrows. (FIG. 1D) Michaelis-Menten analysis of the NAD(P)H oxidase activity of recombinant LbNOX. Inset: values for Vmax and KM for NADH represent the mean±S.D. (error bars) from four independent experiments. (FIG. 1E) The crystal structure of LbNOX. The FAD in stick representation and bound oxygen in red spheres. Inset: The substrate selectivity loops of LbNOX (containing Asp177, Ala178, and Pro184) and glutathione reductase—NADPH complex (containing Arg198 and Arg204) (PDB ID 1GET). Backbone atoms of NAD(P)H binding domains of each protein (residues 147-247 of LbNOX and 167-268 of glutathione reductase) were superimposed using the least square algorithm of COOT. Note that Arg198 and Arg204 of glutathione reductase, which tightly bind the phosphate moiety of NADPH, are replaced in LbNOX with Ala178 and Pro184, respectively. Negatively charged side chain of Asp177 in LbNOX replaces the neutral Val197 of glutathione reductase.
Recombinant LbNOX activity was monitored by following the decrease of the absorbance of NAD(P)H at […] using CARY® 100 spectrophotometer (Agilent, CA). A typical reaction mixture contained 2 μM FAD in 0.5 ml of the assay buffer (50 mM Na2HPO4, pH 7.5, 150 mM NaCl) and was incubated for 4 min at 37° C. before NAD(P)H (2-600 μM) and enzyme (0.08-6.8 μg) were added. Extinction coefficient (ε340=6.2 mM^−1 cm^−1) was used to calculate NAD(P)H oxidase activity. Simultaneous monitoring of oxygen consumption and NADH fluorescence was performed using a custom-built fluorimeter. In our setup the REDEYE™ oxygen patch (OceanOptics) was installed in a cuvette and the optical probe was connected to a fluorimeter. Oxygen causes quenching of the REDEYE™ patch fluorescence which allows to monitor the partial pressure of oxygen. In our experiments 0.5 ml of the assay buffer was preincubated at 28° C. before NADH (40-1500 μM) and LbNOX (0.1-2 μg) were added.

HeLa cells = assay: Oxygen consumption rate (OCR), XF24 extracellular flux analyzer; format: cell-based, human; details: for increase in oxygen consumption: resistance to antimycin: 1 μM antimycin (complex III inhibitor); for increase in oxygen consumption of HeLa cells: doxycycline-inducible expression
Protocol: Oxygen consumption rates (OCR) of HeLa cells expressing 5 bacterial NOXes (untargeted and targeted to mitochondria) and Luciferase under the control of doxycycline (DOX) inducible promoter (TRE3G) were measured with the XF24 Extracellular Flux Analyzer (Seahorse Bioscience, manufactured in 2008). Cells were seeded at 30-40×10^3 cells per well in XF24 24-well cell culture microplates in 200 μl of DMEM (DMEM (US Biological, […]), 3.7 g/L NaHCO3 and 10% dialyzed FBS (Life Technologies, 26400-044) and were incubated at 37° C. in 5% CO2 incubator. Media was replaced the next day with 1 ml per well and doxycycline (final concentration -300 ng/ml, prepared in water) or water were added to the corresponding wells to induce protein expression. Twenty four hour later, media was replaced with 950 μL of the assay medium (no pyruvate DMEM (US Biological, […]), 15.9 mg/L phenol red, 10% dialyzed FBS (Life Technologies, 26400-044) and 25 mM HEPES-KOH, pH 7.4) and plates were introduced into the […] Extracellular Flux Analyzer for experimental measurements. Each measurement was performed over 4 min after a 2-min mix and a 2-min wait period. Basal measurements were collected 8 times and 4 measurements were collected after injection of oligomycin (final concentration 1 μM), followed by 4 measurements after addition of antimycin A (final concentration 1 μM) from the XF24 ports in 50 μL of the assay medium. Cells were seeded at 30-40×10^3 per well in XF24 24-well cell culture microplates in 200 μl of normal growth media (DMEM (US Biological, […]), 3.7 g/L NaHCO3 and 10% dialyzed FBS (Life Technologies, 26400-044)) and were incubated at 37° C. in 5% CO2 incubator. For all experiments the next day media was renewed with 1 ml per well and doxycycline (final concentration -300 ng/ml) or water were added. Twenty four hours later, media was changed to no pyruvate media (no pyruvate DMEM (US Biological, […]), 15.9 mg/L phenol red, 3.7 g/L NaHCO3 and 10% dialyzed FBS (Life Technologies, 26400-044)). Two hours later, media was replaced with 950 μL of the assay medium (no pyruvate DMEM (US Biological, […]), 15.9 mg/L phenol red, 10% dialyzed FBS (Invitrogen, 26400-044) and 25 mM HEPES-KOH, pH 7.4) and OCR was measured. Each measurement was performed over 4 min after a 2-min mix and a 2-min wait period. Basal measurements were collected 8 times and 4 measurements were collected after injection of each drug: antimycin A (final concentration 1 μM) or piericidin (final concentration 1 μM). Three measurements before and after addition of the drug were averaged and normalized by the cell number.

| Molecule | substrate selectivity NADH vs NADPH [1] | specific activity ([1]; after enterokinase cleavage of N-terminal Hisx6 tag) [µmol/min/mg] | specific activity ([1]; fully reconstituted LbNOX (holoLbNOX), peak from Source 15Q, N-terminal Hisx6 tag present) [µmol/min/mg] | Km ([1]; recombinant enzyme, read-out: apparent KM for NADH) [µM] | increase in oxygen consumption: resistance to antimycin (HeLa cells) | increase in oxygen consumption: resistance to piericidin (HeLa cells; 1 μM piericidin (complex I inhibitor)) | increase in oxygen consumption of HeLa cells (HeLa cells) [fold] | kcat with NADH [1] [s⁻¹] |
| --- | --- | --- | --- | --- | --- | --- | --- | --- |
| LbNOX: water-forming NADH oxidase endogenous to Lactobacillus brevis; tested with C-terminal FLAG tag (protein, listed as Lactobacillus brevis, C-terminal FLAG tag) KVTVVGCTHAGTFAIKQILAEHPDAEVTVYERNDVISFLSCGIALYLGGKVADPQGLFYSSPEELQKLGANVQMNHNVLAIDPDQKTVTVEDLTNHAQTTESYDKLVMTSGSWPIVPKIPGIDSDRVKLCKNWAHAQALIEDAKEAKRITVIGAGYIGAELAEAYSTTGHDVTLIDAMARVMPKYFDADFTDVIEQDYRDHGVQLALGETVESFTDSATGLTIKTDKNSYETDLAILCIGFRPNTDLLKGKVDMAPNGAIITDDYMRSSNPDIFAAGDSAAVHYNPTHQNAYIPLATNAVRQGILVGKNLVKPTVKYMGTQSSSGLALYDRTIVSTGLTLAAAKQQGLNAEQVIVEDNYRPEFMPSTEPVLMSLVFDPDTHRILGGALMSKYDVSQSANTLSVCIQNENTIDDLAMVDMLFQPNFDRPFNYLNILAQAAQAKVAQSVNA | selectively oxidizes NADH over NADPH | ~750 | ~550 | 69 ± 3 | resistant | resistant | 1.6 | – |
| TPNOX: NADPH-specific quintuple mutant (G159A/D177A/A178R/M179S/P184R) of LbNOX (protein) KVTVVGCTHAGTFAIKQILAEHPDAEVTVYERNDVISFLSCGIALYLGGKVADPQGLFYSSPEELQKLGANVQMNHNVLAIDPDQKTVTVEDLTNHAQTTESYDKLVMTSGSWPIVPKIPGIDSDRVKLCKNWAHAQALIEDAKEAKRITVIGAGYIAAELAEAYSTTGHDVTLIARSARVMRKYFDADFTDVIEQDYRDHGVQLALGETVESFTDSATGLTIKTDKNSYETDLAILCIGFRPNTDLLKGKVDMAPNGAIITDDYMRSSNPDIFAAGDSAAVHYNPTHQNAYIPLATNAVRQGILVGKNLVKPTVKYMGTQSSSGLALYDRTIVSTGLTLAAAKQQGLNAEQVIVEDNYRPEFMPSTEPVLMSLVFDPDTHRILGGALMSKYDVSQSANTLSVCIQNENTIDDLAMVDMLFQPNFDRPFNYLNILAQAAQAKVAQSVNA | – | – | – | – | resistant | – | 1.7 | 3.2 ± 0.2 |
